Source: patent US20230034768A1 (BIOSION, published 2023)
Changes are numbered by the printed parent chain. Read-outs that look alike come from different tables or passages of the source. Each block holds one binder with its values, some of them ahead of it.

Tests used:
[1] = target: T1, biotin-labeled human RANKL-Fc protein (prepared in house, SEQ ID NO.: 40) (human, biotin-labeled (sites not given)); experiment: competitive ELISA: antibody blocks biotin-labeled human RANKL-Fc binding to coated human RANK-Fc
T1 construct: also called RANKL-Fc-biotin

[2] = target: T2, human RANKL-his protein (prepared in-house with SEQ ID NO: 43) (human, UniProt O14788 136-317); experiment: Octet BLI, antibody captured, human RANKL-his in solution
T2 construct: also called recombinant human RANKL-his
T2 chain: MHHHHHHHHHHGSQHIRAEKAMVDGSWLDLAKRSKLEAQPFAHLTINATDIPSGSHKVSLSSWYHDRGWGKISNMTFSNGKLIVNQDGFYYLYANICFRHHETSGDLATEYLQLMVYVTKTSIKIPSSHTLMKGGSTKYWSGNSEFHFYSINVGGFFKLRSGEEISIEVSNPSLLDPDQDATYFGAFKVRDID
Experimental: (§1) Briefly, AHC/AMC biosensors (anti-human/anti-mouse IgG Fc capture, ForteBio) were presoaked with 10 mM glycine (pH 1.5) for 3 seconds, and then dipped in a well with running buffer (0.5% w/v BSA in PBST) for 3 seconds, the soaking and dipping steps were repeated for three times. […] A new baseline was run for 180 seconds in another well with HBS-EP⁺. […] Finally, sensors were presoaked with 10 mM glycine (pH 1.5) for 3 seconds, and then dipped in a well with running buffer for 3 seconds, the soaking and dipping steps repeated for three times. The association and dissociation curves were fit to a 1:1 Langmuir binding model using Octet evaluation software.
(§2) Cell supernatants were harvested after six days in shaking flasks, spun down to pellet cells, and then chimeric antibodies were purified from cell supernatants as described above. The purified antibodies were tested in the capture ELISA, competitive ELISA assay and Octet affinity test following the protocols in the foregoing Examples.

[3] = target: T1, biotin-labeled human RANKL-Fc protein …; experiment: capture ELISA: captured antibody, biotin-labeled human RANKL-Fc, OD(450-630)
Experimental: (§3) Plates were washed once with wash buffer (PBS+0.05% v/v Tween-20, PBST) and then blocked with 200 μl/well blocking buffer (5% w/v non-fatty milk in PBST) for 2 hours at 37° C. […] After a final wash, plates were incubated with 100 μl/well ELISA substrate TMB (Innoreagents, Cat #TMB-S-002) at room temperature. The reaction was stopped in 3-10 minutes with 50 μl/well 1M H₂SO₄, and the absorbance of each well was read on a microplate reader using dual wavelengths mode with 450 nm for TMB and 630 nm as the reference wavelength. The OD (450-630) values were plotted against antibody concentration. Data were analyzed using Graphpad Prism software and EC₅₀ values were reported.
as §2

[4] = target: T1, biotin-labeled human RANKL-Fc protein …; experiment: competitive ELISA: antibody blocks biotin-labeled human RANKL-Fc binding to coated benchmark denosumab
[5] = target: T2, human RANKL-his protein (prepared …); experiment: Octet BLI, antibody from cell supernatant captured, human RANKL-his in solution
Experimental: as §1
The chimeric antibody when tested was in HBS-EP⁺ at 5 μg/ml concentration.

[6] = target: T3, cynomolgus monkey RANKL-his protein (prepared in-house with SEQ ID NO.:42) (cynomolgus monkey, UniProt O14788 136-317 (human entry), limits assumed); experiment: Biacore T200 SPR, antibody captured by anti-human IgG, cynomolgus RANKL-his in flow, 1:1 fit
T3 construct: also called Cynomolgus RANKL
T3 chain: T2 chain with S53T, G70A, I167V
Experimental: (§4) Briefly, goat anti-human IgG (GE healthcare, Cat #BR100839, Human Antibody Capture Kit) was covalently linked to a CM5 chip (carboxy methyl dextran coated chip from GE healthcare #BR10030) via primary amines, using a standard amine coupling kit provided by Biacore. Un-reacted moieties on the biosensor surface were blocked with ethanolamine. […] The antigen-antibody association kinetics was followed for 2 minutes and the dissociation kinetics was followed for 10 minutes. The association and dissociation curves were fit to a 1:1 Langmuir binding model using BIAcore evaluation software.

[7] = target: T1, biotin-labeled human RANKL-Fc protein …; experiment: competitive ELISA: antibody blocks biotin-labeled human RANKL-Fc binding to coated benchmark denosumab; remark: listed apart in the source
[8] = target: T1, biotin-labeled human RANKL-Fc protein …; experiment: competitive ELISA: antibody blocks biotin-labeled human RANKL-Fc binding to coated human RANK-Fc; remark: listed apart in the source
Experimental: Briefly, human RANK-Fc proteins (prepared in house, SEQ ID NO.: 41) were coated on 96-well micro plates at 2.0 μg/mL in PBS, 100 μl/well, and incubated overnight at 4° C. The next day, plates were washed with wash buffer (PBS+0.05% w/v Tween-20, PBST), and blocked with 5% w/v non-fatty milk in PBST, 200 μl/well, for 2 hours at 37° C.
Plates were washed 4 times using wash buffer, and added and incubated with 100 μl/well of streptavidin conjugated HRP (1:10000 dilution in PBST buffer, Jackson ImmunoResearch Laboratories, Inc., Cat #016-030-084) for 40 minutes at 37° C. Plates were washed again using wash buffer. Finally, TMB was added and the reaction was stopped using 1M H₂SO₄, and the absorbance of each well was read on a microplate reader using dual wavelengths mode with 450 nm for TMB and 630 nm as the reference wavelength. The OD (450-630) values were plotted against antibody concentration. Data were analyzed using Graphpad Prism software and IC₅₀ values were reported.

[9] = target: T1, biotin-labeled human RANKL-Fc protein …; experiment: capture ELISA: captured antibody, biotin-labeled human RANKL-Fc, OD(450-630); remark: listed apart in the source
Experimental: as §3
For the capture ELISA, 96-well micro plates were coated with 2 μg/ml goat anti-human IgG (AffiniPure Goat Anti-Human IgG, F(ab′)₂ fragment specific, Jackson Immunoresearch, Cat #109-005-097) instead of AffiniPure Goat Anti-Mouse IgG, Fcγ fragment specific, 100 μl/well.

[10] = target: T2, human RANKL-his protein (prepared …); experiment: Biacore T200 SPR, antibody captured by anti-human IgG, human RANKL-his in flow, 1:1 fit
Experimental: as §4

[11] = target: T4, Recombinant human RANKL-his protein (R&D, Cat #6449-TEC-010) (human, UniProt O14788 140-317, limits assumed); experiment: cell-based or functional assay
T4 sequence (looked up): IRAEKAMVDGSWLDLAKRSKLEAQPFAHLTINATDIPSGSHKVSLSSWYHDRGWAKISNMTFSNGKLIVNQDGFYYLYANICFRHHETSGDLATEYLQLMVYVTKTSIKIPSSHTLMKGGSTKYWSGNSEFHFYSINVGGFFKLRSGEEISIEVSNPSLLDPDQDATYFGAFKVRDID

[12] = target: T4, Recombinant human RANKL-his protein …; experiment: cell-based or functional assay; remark: listed apart in the source

IC50 [1]: 0.0505 nM
Kd [2]: 0.612 nM
EC50 [3]: 0.183 nM
IC50 [4]: 0.258 nM
B1: Chimeric D1E3 (antibody, human IgG2, kappa, V domains shown)
VH: EVQLVESGGGLVKPGGSLKLSCAASGFTFSRYAMSWVRQTPEKRLEWVAGISSGGTYTYYPDTVKGRFTISRDSAKNILYLQMGSLRSEDSAMYHCARRDYGDVYEWYFDVWGTGTTVTVSS
VL: DIVMTQSHKFMSASVGDRVSITCKASQGVRIAVAWYQQKPGQSPKLLIYSASYRYTGVPDRFTGSGSGTDFTFTISSVQAEDLAVYYCQQHHSSPWTFGGGTKLEIKR
notes: Mouse variable regions on human IgG2 / kappa; also called chimeric antibody D1E3

Kd [5]: < 0.001 nM
koff [5]: < 1e-07 s⁻¹
kon [5]: 112000 M⁻¹ s⁻¹
Kd [6]: 0.42 nM
IC50 [7]: 0.444 nM
IC50 [8]: 0.154 nM
EC50 [9]: 0.2 nM
Kd [10]: 0.134 nM
IC50, RANKL-induced osteoclast differentiation of RAW264.7 cells (pNPP, OD405) [11]: ~1.42 nM
IC50, RANKL-induced osteoclast differentiation of RAW264.7 cells (pNPP, OD405) [12]: ~1.45 nM
B2: humanized antibody huD1A1-V2 (antibody, human IgG4 S228P, kappa, V domains shown)
VH: EVQLVESGGGLVKPGGSLRLSCAASGFTFRNYAMSWVRQAPGKGLEWVSGISSGGTYTYYPDTVKGRFTISRDNAKNSLYLQMNSLRAEDTAVYYCARRDYGDVYEWYFDVWGKGTTVTVSS
VL: DIQMTQSPSSLSASVGDRVTITCKASQDVRTSIAWYQQKPGKAPKLLIYSASYRYTGVPSRFSGSGSGTDFTFTISSLQPEDIATYYCQQHYSSPWTFGGGTKVEIKR
notes: Human IgG4 / kappa

Kd [5]: < 0.001 nM
koff [5]: < 1e-07 s⁻¹
kon [5]: 106000 M⁻¹ s⁻¹
B3: humanized antibody huD1A1-V3 (antibody, human IgG4 S228P, kappa, V domains shown)
VH: B2 VH with S49A
VL: B2 VL
notes: Human IgG4 / kappa

Kd [5]: < 0.001 nM
koff [5]: < 1e-07 s⁻¹
kon [5]: 101000 M⁻¹ s⁻¹
B4: humanized antibody huD1A1-V4 (antibody, human IgG4 S228P, kappa, V domains shown)
VH: B2 VH with S49A, K76R, K114T
VL: B2 VL with A43S, I83L
notes: Human IgG4 / kappa

Kd [5]: < 0.001 nM
koff [5]: < 1e-07 s⁻¹
kon [5]: 124000 M⁻¹ s⁻¹
B5: humanized antibody huD1A1-V1 (antibody, human IgG4 S228P, kappa, V domains shown)
VH: B2 VH with S49A, K76R, K114T
VL: B2 VL
notes: Human IgG4 / kappa

Kd [5]: < 0.001 nM
koff [5]: < 1e-07 s⁻¹
kon [5]: 120000 M⁻¹ s⁻¹
Kd [6]: 0.414 nM
IC50 [7]: 0.338 nM
IC50 [8]: 0.139 nM
EC50 [9]: 0.182 nM
Kd [10]: 0.179 nM
IC50, RANKL-induced osteoclast differentiation of RAW264.7 cells (pNPP, OD405) [11]: ~1.42 nM
IC50, RANKL-induced osteoclast differentiation of RAW264.7 cells (pNPP, OD405) [12]: 1.51 nM
B6: humanized antibody huD1A1-V5 (antibody, human IgG4 S228P, kappa, V domains shown)
VH: B2 VH
VL: B2 VL with A43S, I83L
notes: Human IgG4 / kappa

Kd [5]: < 0.001 nM
koff [5]: < 1e-07 s⁻¹
kon [5]: 115000 M⁻¹ s⁻¹
B7: humanized antibody huD1A1-V6 (antibody, human IgG4 S228P, kappa, V domains shown)
VH: B2 VH with S49A
VL: B2 VL with A43S, I83L
notes: Human IgG4 / kappa

IC50 [1]: 0.905 nM
Kd [2]: 1.62 nM
EC50 [3]: 2 nM
IC50 [4]: 4.4 nM
B8: Chimeric B1A8 (antibody, human IgG2, kappa, V domains shown)
VH: EVQLVESGGDLVKPGGSLKLSCAASGFTFSRYGMSWVRQTPDKRLEWVASISSGGTYTSYPDSVQGRFTITRDSAKNTLYLQMSSLKSEDTAMYYCARRNFITSATDCYFDVWGAGTTVTVSS
VL: DTVLTQSPATLSVTPGASVSLSCRASQSISNNLHWYQQKSHESPRLLIIYASQSISGIPSRFSGSGSGTDFTLSINSVETEDFGVYFCQQSNSWPFTFGGGTKLEIKR
notes: Mouse variable regions on human IgG2 / kappa; also called chimeric antibody B1A8

IC50 [1]: 3.17 nM
Kd [2]: 2.65 nM
EC50 [3]: 3.17 nM
IC50 [4]: 16.8 nM
B9: Chimeric B3D8 (antibody, human IgG2, kappa, V domains shown)
VH: B8 VH with P14S, Q65K
VL: B8 VL
notes: Mouse variable regions on human IgG2 / kappa; also called chimeric antibody B3D8
